Data as given in paper PMC3815026, “Serglycin Is Implicated in the Promotion of Aggressive Phenotype of Breast Cancer Cells” (PLoS ONE, 2013).

Assays:
[1] = target: T1, C1q (UniProt P02745 23-245; P02746 28-253; P02747 29-245); test: ELISA; solid phase binding assay: microtiter plates coated with 5 µg/ml serglycin (as GAG content), blocked with 1% BSA; C1q or MBL added at increasing concentrations in 50 mM Hepes pH 7.4, 150 mM NaCl, 2 mM CaCl2, 1 h at RT; bound protein detected with antibodies; KD from the slope of a Scatchard-type plot; settings: both partners purified
T1 construct: complement C1q subcomponent subunit A; complement C1q subcomponent subunit B; complement C1q subcomponent subunit C; also called complement component C1q; purified C1q; source: bought: Sigma-Aldrich; copies: + +
T1 sequence (P02745 23-245, chain 1 of 3): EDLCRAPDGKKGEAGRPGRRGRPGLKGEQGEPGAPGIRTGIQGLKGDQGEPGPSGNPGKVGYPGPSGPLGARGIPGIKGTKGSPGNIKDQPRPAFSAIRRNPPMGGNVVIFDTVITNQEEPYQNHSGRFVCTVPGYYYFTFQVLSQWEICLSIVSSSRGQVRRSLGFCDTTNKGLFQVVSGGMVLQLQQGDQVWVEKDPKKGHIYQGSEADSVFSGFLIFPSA
T1 sequence (P02746 28-253, chain 2 of 3): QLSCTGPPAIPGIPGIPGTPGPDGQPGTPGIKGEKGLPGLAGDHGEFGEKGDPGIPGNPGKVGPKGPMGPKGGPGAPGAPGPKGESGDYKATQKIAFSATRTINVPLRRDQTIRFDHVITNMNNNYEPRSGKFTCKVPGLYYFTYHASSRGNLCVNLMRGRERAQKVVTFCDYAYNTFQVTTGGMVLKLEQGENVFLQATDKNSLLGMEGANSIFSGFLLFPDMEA
T1 sequence (P02747 29-245, chain 3 of 3): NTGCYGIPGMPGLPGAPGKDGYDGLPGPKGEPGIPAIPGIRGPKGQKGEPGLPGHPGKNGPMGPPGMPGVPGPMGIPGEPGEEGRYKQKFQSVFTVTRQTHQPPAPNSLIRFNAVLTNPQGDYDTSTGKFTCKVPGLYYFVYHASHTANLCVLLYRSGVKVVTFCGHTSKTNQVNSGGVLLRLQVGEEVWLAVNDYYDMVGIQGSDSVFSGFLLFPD

[2] = target: T2, mannose-binding lectin (UniProt P11226 21-248); test: as above; settings: both partners purified
T2 construct: Neither the species nor the oligomeric state is stated; Human MBL is surmised; also called MBL; source: bought: Statens Serum Institute (Denmark)
T2 sequence (P11226 21-248): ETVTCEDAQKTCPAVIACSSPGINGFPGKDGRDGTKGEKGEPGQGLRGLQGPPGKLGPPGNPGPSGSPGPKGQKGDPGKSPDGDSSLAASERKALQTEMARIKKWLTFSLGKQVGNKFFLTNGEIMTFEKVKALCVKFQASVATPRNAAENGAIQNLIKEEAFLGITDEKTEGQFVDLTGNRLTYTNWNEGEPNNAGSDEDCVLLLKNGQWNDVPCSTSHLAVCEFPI

Kd [1]: 20 nM
Kd [2]: 48 nM
B1: Serglycin isolated from conditioned medium of MDA-MB-231 breast cancer cells (total glycanated serglycin) (natural protein, human (endogenous in MDA-MB-231), UniProt P10124 28-158, looked up)
chain: YPTRRARYQWVRCNPDSNSANCLEEKGPMFELLPGESNKIPRLRTDLFPKTRIQDLNRIFPLSEDYSGSGFGSGSGSGSGSGSGFLTEMEQDYQLVDESDAFHDNLRSLDRNLPSDSQDLGQHGLEEDFML
modifications: chondroitin sulfate side chains (4-sulfated 87%, 6-sulfated 10%, non-sulfated 3% disaccharides)
notes: serglycin core protein, secreted proteoglycan of ~250-300 kDa, core protein seen at ~28 kDa after chondroitinase ABC; Proteoglycan: GAG content about 94.5% and core protein about 5.5% of the total mass; also called SG; breast cancer-derived serglycin; source: endogenous, secreted by MDA-MB-231 cells; purified from culture medium (DEAE-Sephacel, Sepharose CL-4B)
